Data as given in the supplement of paper PMC9112550, “Optimization of the antimicrobial peptide Bac7 by deep mutational scanning” (BMC Biology, 2022).

System: Escherichia coli TOP10
Test: shrunken log2 fold change of peptide-encoding DNA abundance (4.5 h post-induction vs induction); higher = less antimicrobial activity (less host growth inhibition)
Settings: time post-induction: 4.5 h; library: site-saturation at positions 5, 18, 19, 20
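Further: peptides expressed intracellularly from a pBAD plasmid library in pooled LB shake-flask culture, induced with 0.3% L-arabinose, DNA abundance read by NGS, three biological replicates, DESeq2 with apeglm shrinkage.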

| Sequence | shrunken log2 fold change |
| --- | --- |
| RRIRPRPPRLPRPRPRPRTVPRP | 0.322 |
| RRIRCRPPRLPRPRPRPWMCPRP | -0.851 |
| RRIRYRPPRLPRPRPRPRYIPRP | -0.397 |
| RRIRQRPPRLPRPRPRPRAEPRP | 0.292 |
| RRIRWRPPRLPRPRPRPSVNPRP | -0.0581 |
| RRIRFRPPRLPRPRPRPKLFPRP | -0.0554 |
| RRIRRRPPRLPRPRPRPTWIPRP | 0.53 |
| RRIRLRPPRLPRPRPRPQLGPRP | -0.0132 |
| RRIRARPPRLPRPRPRPLYAPRP | 0.0495 |
| RRIRHRPPRLPRPRPRPLKRPRP | -0.00686 |
| RRIRSRPPRLPRPRPRPFFIPRP | -0.547 |
| RRIRKRPPRLPRPRPRPSPVPRP | 0.191 |
| RRIRNRPPRLPRPRPRPYFHPRP | -0.474 |
| RRIRHRPPRLPRPRPRPGDDPRP | -0.044 |
| RRIRNRPPRLPRPRPRPEAFPRP | 0.0792 |
| RRIRARPPRLPRPRPRPFDPPRP | 0.0109 |
| RRIRHRPPRLPRPRPRPHKSPRP | -0.337 |
| RRIRKRPPRLPRPRPRPIPWPRP | 0.466 |
| RRIRYRPPRLPRPRPRPIIQPRP | -0.0128 |
| RRIRERPPRLPRPRPRPSNNPRP | -0.973 |
| RRIRNRPPRLPRPRPRPCMKPRP | -0.507 |
| RRIRCRPPRLPRPRPRPMNFPRP | -0.383 |
| RRIRWRPPRLPRPRPRPLQPPRP | 0.54 |
| RRIRYRPPRLPRPRPRPSFHPRP | -1.01 |
| RRIRQRPPRLPRPRPRPVTNPRP | 0.0368 |

| Sequence | shrunken log2 fold change |
| --- | --- |
| RRIRGRPPRLPRPRPRPPPDPRP | 1.37 |
| RRIRERPPRLPRPRPRPMFKPRP | -0.204 |
| RRIRQRPPRLPRPRPRPCTKPRP | 0.00259 |
| RRIRVRPPRLPRPRPRPNAQPRP | 0.24 |
| RRIRCRPPRLPRPRPRPQSYPRP | -0.308 |
| RRIRCRPPRLPRPRPRPHYFPRP | -0.324 |
| RRIRVRPPRLPRPRPRPDLNPRP | -0.233 |
| RRIRWRPPRLPRPRPRPSRQPRP | 0.399 |
| RRIRVRPPRLPRPRPRPETGPRP | 0.206 |
| RRIRMRPPRLPRPRPRPHILPRP | 0.113 |
| RRIRFRPPRLPRPRPRPTKMPRP | 0.0196 |
| RRIRSRPPRLPRPRPRPQYCPRP | -0.0172 |
| RRIRARPPRLPRPRPRPAQDPRP | 0.232 |
| RRIRVRPPRLPRPRPRPAKEPRP | 0.226 |
| RRIRSRPPRLPRPRPRPDAPPRP | 0.49 |
| RRIRSRPPRLPRPRPRPKGDPRP | -0.011 |
| RRIRERPPRLPRPRPRPEVSPRP | 0.0769 |
| RRIRNRPPRLPRPRPRPPGFPRP | 1.54 |
| RRIRQRPPRLPRPRPRPQPSPRP | 0.44 |
| RRIRARPPRLPRPRPRPTSKPRP | 0.236 |
| RRIRVRPPRLPRPRPRPYPWPRP | -0.361 |
| RRIRLRPPRLPRPRPRPTRQPRP | -0.0888 |
| RRIRCRPPRLPRPRPRPPTWPRP | 0.0486 |
| RRIRSRPPRLPRPRPRPSGPPRP | 0.0577 |
| RRIRLRPPRLPRPRPRPQSPPRP | -0.0515 |

| Sequence | shrunken log2 fold change |
| --- | --- |
| RRIRNRPPRLPRPRPRPFFDPRP | -0.0739 |
| RRIRMRPPRLPRPRPRPKATPRP | 0.0633 |
| RRIRVRPPRLPRPRPRPRERPRP | 0.578 |
| RRIRPRPPRLPRPRPRPWTWPRP | -0.0128 |
| RRIRERPPRLPRPRPRPFNWPRP | 0.00763 |
| RRIRERPPRLPRPRPRPMLDPRP | 0.0349 |
| RRIRCRPPRLPRPRPRPCDVPRP | -0.0285 |
| RRIRFRPPRLPRPRPRPNEAPRP | -0.0305 |
| RRIRTRPPRLPRPRPRPRANPRP | 0.177 |
| RRIRIRPPRLPRPRPRPDWEPRP | -0.0114 |
| RRIRFRPPRLPRPRPRPKHYPRP | -0.271 |
| RRIRRRPPRLPRPRPRPVWWPRP | 0.703 |
| RRIRRRPPRLPRPRPRPEIWPRP | 0.621 |
| RRIRFRPPRLPRPRPRPIRGPRP | -0.0057 |
| RRIRNRPPRLPRPRPRPEHYPRP | -0.38 |
| RRIRHRPPRLPRPRPRPYCEPRP | -0.114 |
| RRIRVRPPRLPRPRPRPWTLPRP | 0.113 |
| RRIRQRPPRLPRPRPRPMKRPRP | -0.111 |
| RRIRWRPPRLPRPRPRPVWMPRP | 0.333 |
| RRIRKRPPRLPRPRPRPEDLPRP | 1.8 |
| RRIRKRPPRLPRPRPRPHIHPRP | -0.239 |
| RRIRTRPPRLPRPRPRPTPDPRP | 0.306 |
| RRIRTRPPRLPRPRPRPEMVPRP | 0.134 |
| RRIRWRPPRLPRPRPRPGDCPRP | 0.00839 |
| RRIRRRPPRLPRPRPRPDQGPRP | -0.0712 |
